Assay results published in patent publication US20040071717A1.

Biological target: specific IgE from a pool of sera from plantain-allergic patients
Assay: inhibition ELISA: nPla I 1 coated on plate, pooled-serum IgE inhibited by rPla I 1.0101, detection with HRP-labeled anti-human IgE

B1: recombinant Pla I 1 allergen, variant 0101 (rPla I 1.0101), expressed in Pichia pastoris (protein)
chain: ETQTSHPAKFHVEGEVYCNVCHSRNLINELSERMAGAQVQLDCKDDSKKVIYSIGGETDQDGVYRLPVVGYHEDCEIKLVKSSRPDCSEIPKLAKGTIQTSKVDLSKNTTITEKTRHVKPLSFRAKTDAPGC
modifications: partly N-glycosylated (glycosylated 22 kDa and non-glycosylated 17 kDa forms; potential N-glycosylation site at position 107)
Question: Which % inhibition of IgE-binding does the source give for B1 here?
Answer: The % inhibition of IgE-binding was 80%.
